Several values for one entry are separate records, joined by “and”; a condition that tells them apart may be missing. Equal values may be shown once. Bridges are numbered along the chain shown (N, C = ends). [ ]: non-standard residue; d: D form. pY = N[C@@H](Cc1ccc(OP(=O)(O)O)cc1)C(=O)O; NMeW = CN[C@@H](Cc1c[nH]c2ccccc12)C(=O)O; R8 = C=CCCCCCC[C@@](C)(N)C(=O)O; Cba = N[C@@H](CC1CCC1)C(=O)O; S5 = C=CCCC[C@](C)(N)C(=O)O; Nle = CCCC[C@H](N)C(=O)O; G1a = not defined here
T1: MDMX (In-house, 40 kD) (UniProt O15151)
T1 sequence (looked up): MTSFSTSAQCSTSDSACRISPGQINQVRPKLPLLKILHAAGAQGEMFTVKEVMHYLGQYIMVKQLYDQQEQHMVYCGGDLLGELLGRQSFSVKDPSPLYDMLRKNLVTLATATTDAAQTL

T2: MDMX (In-house, 40 kD) (UniProt O15151 1-120, limits assumed)
T2 construct: Only 'In-house, 40 kD' is said of the protein used in the fluorescence polarization assays; also called MDM4
T2 sequence (looked up): T1 sequence (looked up)

T3: MDMX (In-house, 40 kD) (UniProt O15151 1-120, limits assumed)
T3 construct: Only 'MDMX (In-house, 40 kD)' is said of the protein in the FP assays; also called MDM4
T3 sequence (looked up): T1 sequence (looked up)

B1: SP712, Ac-LTF$r8HYWAQCba$SAA-NH2 (iso2) (peptide)
peptide: Ac-LTF[R8]HYWAQ[Cba][S5]SAA-NH2
modifications: staple 4-11; also: single isomer iso2
notes: stapled peptidomimetic macrocycle, isomer iso2
B2: SP713, Ac-LTF$r8SYWAQCba$SAA-NH2 (iso2) (peptide)
peptide: Ac-LTF[R8]SYWAQ[Cba][S5]SAA-NH2
modifications: staple 4-11; also: single isomer iso2
notes: as for B1
B3: SP615, Ac-LTF$r8EpYWAQL$AAAAAa-NH2 (peptide)
peptide: Ac-LTF[R8]E[pY]WAQL[S5]AAAAA[dA]-NH2
modifications: staple 4-11
B4: SP386 (peptide)
peptide: Ac-LTF[R8]AY[NMeW]AQL[S5]AA[Nle]A-NH2
modifications: staple 4-11; not fully specified
notes: Stapled peptidomimetic macrocycle, single isomer iso2; also called Ac-LTF$r8AYNmWAQL$AANleA-NH2
B5: SP602, Ac-LTF$r8G1aYWAQL$AAAAAa-NH2 (peptide)
peptide: Ac-LTF[R8][G1a]YWAQL[S5]AAAAA[dA]-NH2
modifications: staple 4-11; not fully specified; reading uncertain
notes: stapled peptidomimetic macrocycle
B6: SP600, Ac-LTF$r8QYWAQL$AAAAAa-NH2 (peptide)
peptide: Ac-LTF[R8]QYWAQL[S5]AAAAA[dA]-NH2
modifications: staple 4-11
notes: as for B5
B7: SP611, Ac-LTF$r8EYWANL$AAAAAa-NH2 (peptide)
peptide: Ac-LTF[R8]EYWANL[S5]AAAAA[dA]-NH2
modifications: staple 4-11
notes: as for B5
B8: SP608, Ac-LTF$r8EYWALL$AAAAAa-NH2 (peptide)
peptide: Ac-LTF[R8]EYWALL[S5]AAAAA[dA]-NH2
modifications: staple 4-11
notes: as for B5

Key:
MDM2 (In-house, 41 kD) [1] = target: MDM2 (In-house, 41 kD) (UniProt Q00987); assay: competitive fluorescence polarization on MDM2 against FAM-labeled linear peptide; grade, scale in paragraph 462
Chain of MDM2 (In-house, 41 kD) (UniProt Q00987) (Q00987 1-125 limits assumed): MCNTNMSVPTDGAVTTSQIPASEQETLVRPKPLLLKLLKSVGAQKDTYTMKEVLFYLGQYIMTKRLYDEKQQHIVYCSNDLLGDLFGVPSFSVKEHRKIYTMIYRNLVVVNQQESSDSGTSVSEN

MDMX (In-house, 40 kD) [2] = target: T1, MDMX (In-house, 40 kD); assay: competitive fluorescence polarization on MDMX against FAM-labeled linear peptide; grade, scale in paragraph 462
MDM2 (In-house, 41 kD) [3] = target: T4, MDM2 (In-house, 41 kD) (UniProt Q00987 1-125, limits assumed); assay: competitive fluorescence polarization on MDM2 against FAM-labeled linear peptide; grade, scale in paragraph 462
T4 construct: Only 'In-house, 41 kD' is said of the protein used in the fluorescence polarization assays; also called HDM2
T4 sequence (Q00987 1-125 limits assumed): as above
Experimental: Then, dilute from 100 µM to 10 µM with water (dilution 1:10) and then dilute with FP buffer from 10 µM to 40 nM (dilution 1:250). This is the working solution which will be a 10 nM concentration in well (dilution 1:4). Keep the diluted FAM labeled peptide in the dark until use. […] Dilute 10 mM (in 100% DMSO) with DMSO to 5 mM (dilution 1:2). Then, dilute from 5 mM to 500 µM with H₂O (dilution 1:10) and then dilute with FP buffer from 500 µM to 20 µM (dilution 1:25). […] Add 10 µl of 10 nM (4×) of FAM labeled peptide into each well and incubate for 3 hr to read.

MDMX (In-house, 40 kD) [4] = target: T2, MDMX (In-house, 40 kD); assay: competitive fluorescence polarization on MDMX against FAM-labeled linear peptide; grade, scale in paragraph 462
Experimental: (§1) Dilute MDMX (In-house, 40 kD) into FP buffer (High salt buffer-200 mM Nacl, 5 mM CHAPS, pH 7.5.) to make 300 nM (2×) working stock solution. […] Then, dilute from 100 µM to 10 µM with water (dilution 1:10) and then dilute with FP buffer from 10 µM to 40 nM (dilution 1:250). […] Keep the diluted FAM labeled peptide in the dark until use. […] Dilute 10 mM (in 100% DMSO) with DMSO to 5 mM (dilution 1:2). Then, dilute from 5 mM to 500 µM with H₂O (dilution 1:10) and then dilute with FP buffer from 500 µM to 20 µM (dilution 1:25). […] Add 10 µl of 10 nM (4×) of FAM labeled peptide into each well and incubate for 3 hr to read.

MDMX (In-house, 40 kD) [5] = target: T3, MDMX (In-house, 40 kD); assay: competitive FP vs FAM labeled linear peptide; column Ki (MDMX); + = >1000 nM by the table's scale
Experimental: as §1

MDMX (In-house, 40 kD) [6] = target: T3, MDMX (In-house, 40 kD); assay: competitive FP vs FAM labeled linear peptide; column IC50 (MDMX); + = >1000 nM by the table's scale
Experimental: as §1

Molecule | IC50 (MDM2 (In-house, 41 kD) [1]) | IC50 (MDMX (In-house, 40 kD) [2]) | Ki (MDM2 (In-house, 41 kD) [3]) | also measured
SP752, Ac-t$r5wya$r5f4CF3e1d1r-NH2 (peptide) | > 100 nM and < 1000 nM | > 1000 nM | – | –
SP757, Ac-tawy$s8nf4CF3ek11$r5a-NH2 (peptide) | < 10 nM | > 1000 nM | – | –
SP754, Ac-tawya$r5f4CF3ek$r51r-NH2 (peptide) | > 100 nM and < 1000 nM | > 1000 nM | – | –
SP756, Ac-t$s8wyanf4CF3e$r511r-NH2 (peptide) | > 10 nM and < 100 nM | > 1000 nM | – | –
SP758, Ac-tawya$s8f4CF3e1d1r$r5a-NH2 (peptide) | > 10 nM and < 100 nM | > 1000 nM | – | –
SP755, Ac-tawyanf4CF3e$r511r$r5a-NH2 (peptide) | < 10 nM | > 1000 nM | – | –
SP753, Ac-tawy$r5nf4CF3e$r511r-NH2 (peptide) | > 10 nM and < 100 nM | > 1000 nM | – | –
B1 | – | – | ≤ 10 nM | Ki (MDMX (In-house, 40 kD) [4]): ≤ 10 nM
B2 | – | – | ≤ 10 nM | Ki (MDMX (In-house, 40 kD) [4]): ≤ 10 nM
B3 | – | – | – | Ki (MDM2 (In-house, 41 kD) [1]): < 10 nM; Ki (MDMX (In-house, 40 kD) [2]): < 10 nM
B4 | – | – | – | Ki (MDMX (In-house, 40 kD) [5]): > 1000 nM; IC50 (MDMX (In-house, 40 kD) [6]): > 1000 nM
B5 | – | – | ≤ 10 nM | Ki (MDMX (In-house, 40 kD) [4]): ≤ 10 nM
B6 | – | – | ≤ 10 nM | Ki (MDMX (In-house, 40 kD) [4]): ≤ 10 nM
B7 | – | – | ≤ 10 nM | –
B8 | – | – | ≤ 10 nM | –
